This is an account of results in US20210228731A1 (Novartis, published 2021).

Where a chain is given by its changes, count along the chain named.

As usually defined, the Kd is the concentration at which binding is half-saturated.

Test [1] has as its target T1, Mouse cKIT ECD, C-terminal 6x His (Sino Biological Inc, catalog number 50530-M08H) (mouse, UniProt P05532 25-527).
T1 construct: extracellular domain
T1 sequence: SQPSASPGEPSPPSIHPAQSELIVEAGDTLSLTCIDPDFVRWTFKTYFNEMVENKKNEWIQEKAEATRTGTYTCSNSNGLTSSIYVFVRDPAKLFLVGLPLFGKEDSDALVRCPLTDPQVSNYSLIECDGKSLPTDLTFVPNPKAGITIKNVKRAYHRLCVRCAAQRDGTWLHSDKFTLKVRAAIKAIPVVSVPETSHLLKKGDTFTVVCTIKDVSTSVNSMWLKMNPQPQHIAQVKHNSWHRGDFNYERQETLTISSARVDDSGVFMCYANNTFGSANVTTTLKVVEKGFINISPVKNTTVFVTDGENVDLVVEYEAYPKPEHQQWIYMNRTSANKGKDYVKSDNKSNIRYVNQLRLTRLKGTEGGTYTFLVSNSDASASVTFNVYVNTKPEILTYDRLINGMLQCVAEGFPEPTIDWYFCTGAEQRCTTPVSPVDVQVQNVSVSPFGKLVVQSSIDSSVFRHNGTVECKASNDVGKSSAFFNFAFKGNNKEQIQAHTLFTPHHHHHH
The test can be described thus: reactivity to mouse cKIT (method not given; Example 4 describes SPR).

The target in test [2] is T2, Rat cKIT D1-5, C-terminal mFc (rat).
T2 construct: also called rat cKIT-mFc
T2 chain: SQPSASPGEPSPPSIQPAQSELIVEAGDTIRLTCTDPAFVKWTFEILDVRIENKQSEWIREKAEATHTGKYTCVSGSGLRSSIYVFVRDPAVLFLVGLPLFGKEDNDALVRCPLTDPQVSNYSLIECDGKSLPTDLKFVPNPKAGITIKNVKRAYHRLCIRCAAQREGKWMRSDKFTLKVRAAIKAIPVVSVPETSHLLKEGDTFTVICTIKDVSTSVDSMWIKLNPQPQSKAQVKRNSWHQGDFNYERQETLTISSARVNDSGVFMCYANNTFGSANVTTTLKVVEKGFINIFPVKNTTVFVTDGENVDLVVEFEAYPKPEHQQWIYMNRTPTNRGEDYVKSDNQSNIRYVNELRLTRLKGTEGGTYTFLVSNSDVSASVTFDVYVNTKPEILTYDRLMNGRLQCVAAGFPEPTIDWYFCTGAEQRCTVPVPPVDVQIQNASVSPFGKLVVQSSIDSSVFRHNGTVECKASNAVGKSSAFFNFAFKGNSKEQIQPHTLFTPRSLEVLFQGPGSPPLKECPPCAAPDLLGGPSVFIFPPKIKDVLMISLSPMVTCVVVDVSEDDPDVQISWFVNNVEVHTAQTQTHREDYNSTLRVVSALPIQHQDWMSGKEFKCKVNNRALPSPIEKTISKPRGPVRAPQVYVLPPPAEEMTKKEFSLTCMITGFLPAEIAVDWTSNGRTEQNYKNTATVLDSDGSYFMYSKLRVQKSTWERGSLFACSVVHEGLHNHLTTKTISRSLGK
The test can be described thus: reactivity to rat cKIT (method not given; Example 4 describes SPR).

Test [3] concerns the target T3, Human cKIT D1-5 (extracellular domain) (human, UniProt P10721 26-524).
T3 construct: also called human cKIT ECD; full-length cKIT ECD
The test can be described thus: SET per the column head (Example 4 describes SPR, Biacore: antibody captured by anti-human Fc, cKIT ECD in solution). A general note: SPR reads the build-up and loss of mass on a sensor chip optically.

For test [4], the target named is T4, Cynomolgus monkey cKIT D1-5 (cynomolgus monkey, UniProt P10721 26-524 (human entry)).
T4 construct: also called cyno cKIT ECD
T4 chain: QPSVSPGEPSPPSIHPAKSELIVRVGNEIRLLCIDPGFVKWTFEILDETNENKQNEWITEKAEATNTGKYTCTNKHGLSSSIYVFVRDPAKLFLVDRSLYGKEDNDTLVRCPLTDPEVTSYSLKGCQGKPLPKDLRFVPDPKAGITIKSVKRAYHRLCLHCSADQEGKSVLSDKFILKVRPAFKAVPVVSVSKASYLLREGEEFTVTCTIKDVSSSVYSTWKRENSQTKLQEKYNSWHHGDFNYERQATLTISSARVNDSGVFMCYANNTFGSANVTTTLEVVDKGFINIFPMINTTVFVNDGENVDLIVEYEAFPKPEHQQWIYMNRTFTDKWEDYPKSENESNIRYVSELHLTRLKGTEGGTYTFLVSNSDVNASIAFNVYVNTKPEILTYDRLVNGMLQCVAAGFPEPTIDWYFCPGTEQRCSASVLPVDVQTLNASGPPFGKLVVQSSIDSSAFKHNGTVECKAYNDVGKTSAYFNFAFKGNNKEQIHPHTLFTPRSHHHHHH
The test is described as above.

T3 sequence (P10721 other isoform, or with tags, fused parts or gaps): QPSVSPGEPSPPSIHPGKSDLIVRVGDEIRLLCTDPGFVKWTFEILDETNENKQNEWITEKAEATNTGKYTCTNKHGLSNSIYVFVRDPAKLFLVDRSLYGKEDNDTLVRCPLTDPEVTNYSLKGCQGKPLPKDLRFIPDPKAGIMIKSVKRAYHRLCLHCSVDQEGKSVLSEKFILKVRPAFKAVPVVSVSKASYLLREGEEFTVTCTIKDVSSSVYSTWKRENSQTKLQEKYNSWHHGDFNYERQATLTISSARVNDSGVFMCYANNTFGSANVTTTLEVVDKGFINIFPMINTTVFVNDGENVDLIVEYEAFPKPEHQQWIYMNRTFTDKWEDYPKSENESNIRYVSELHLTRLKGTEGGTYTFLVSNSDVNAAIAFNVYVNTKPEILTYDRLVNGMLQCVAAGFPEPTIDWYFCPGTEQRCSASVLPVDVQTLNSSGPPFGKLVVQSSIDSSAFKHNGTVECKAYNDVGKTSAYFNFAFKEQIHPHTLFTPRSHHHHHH

B1: Anti-cKIT Ab1 (antibody, human IgG1, kappa, V domains shown)
VH: QVQLVQSGAEVKKPGSSVKVSCKASGGTFSSYAISWVRQAPGQGLEWMGVIFPAEGAPGYAQKFQGRVTITADESTSTAYMELSSLRSEDTAVYYCARGGYISDFDVWGQGTLVTVSS
VL: DIQMTQSPSSLSASVGDRVTITCRASQSISNYLAWYQQKPGKAPKLLIYDASSLQSGVPSRFSGSGSGTDFTLTISSLQPEDFATYYCQQYYYESITFGQGTKVEIKR
notes: Full-length human IgG1, kappa light chain
Regarding B1, the binding result in test [1] and in test [2] was “no binding” throughout. Further, the dissociation constant (Kd) in test [3] is 94 pM; in test [4], 170 pM.

B2: Anti-cKIT Ab2 (antibody, human IgG1, kappa, V domains shown)
VH: QVQLVQSGAEVKKPGSSVKVSCKASGGTFSSHALSWVRQAPGQGLEWMGGIIPSFGTADYAQKFQGRVTITADESTSTAYMELSSLRSEDTAVYYCARGLYDFDYWGQGTLVTVSS
VL: B1 VL with S28D, N31Q, Y32D, T85V, E94L, S95P, I96S
notes: as for B1
With B2, the binding result in test [1] and in test [2] was “no binding” each time. Also, the dissociation constant Kd came to 7 pM in test [3] and 10 pM in test [4].

B3: Anti-cKIT Ab3 (antibody, human IgG1, kappa, V domains shown)
VH: B1 VH with V50T, F52G, A54F, A57Q, G59R
VL: B1 VL
notes: as for B1
Consider B3, for which the binding result in test [1] and in test [2] was “no binding” throughout. The equilibrium dissociation constant (Kd) in test [4] turned out to be 52 pM.

B4: Anti-cKIT Ab4 (antibody, human IgG1, lambda, V domains shown)
VH: QVQLQQSGPGLVKPSQTLSLTCAISGDSVSTNSAAWNWIRQSPSRGLEWLGRIYYRSQWLNDYAVSVKSRITINPDTSKNQFSLQLNSVTPEDTAVYYCARQLTYPYTVYHKALDVWGQGTLVTVSS
VL: DIELTQPPSVSVSPGQTASITCSGDNLGDQYVSWYQQKPGQAPVLVIYDDTDRPSGIPERFSGSNSGNTATLTISGTQAEDEADYYCQSTDSKSVVFGGGTKLTVLG
notes: Full-length human IgG1, lambda light chain
Consider B4, for which the binding result in test [2] was “binds”. Moreover, the dissociation constant (Kd) was 2400 pM in test [3] and 140 pM in test [4].

B5: Anti-cKIT Ab5 (antibody, human IgG1, lambda, V domains shown)
VH: QVQLVQSGAEVKKPGESLKISCKGSGYSFTNYWIAWVRQMPGKGLEWMGIIYPSNSYTLYSPSFQGQVTISADKSISTAYLQWSSLKASDTAMYYCARVPPGGSISYPAFDHWGQGTLVTVSS
VL: DIELTQPPSVSVSPGQTASITCSGDNIGSIYASWYQQKPGQAPVLVIYRDNKRPSGIPERFSGSNSGNTATLTISGTQAEDEADYYCSVTDMEQHSVFGGGTKLTVLG
notes: as for B4
On to B5, for which the binding result in test [2] was “binds”. For the same molecule, the Kd in test [3] was found to be 110 pM; in test [4], 180 pM.
